The DeepSol protein solubility set

Assay: soluble on expression in E. coli; label from the status in PepcDB or PDB records

| Sequence | soluble on expression in E. coli |
| --- | --- |
| LARPKLAVVGSRNASQMGVAAVKKIIQDLSKQFVIISGLARGIDTAAHLASLKSGGATIAVIGTGLDVHYPKENRRLQDYIAKNHLLLSEYEAQSQPLKYHFPERNRIIAGLSQGVMVAEAKIRSGSLITCERAMEEGRDVFVVPGNILDGQSEGCHHLIQEGAKCITSGFDILNEFNF | not soluble |
| MRIVQATLEHLDLLAPLFVKYREFYGMLSYPESSRKFLEKRLRRKESVIYLALADEEDRLLGFCQLYPSFSSLSLKRVWILNDIYVAEEARRQLVADHLLQHAKQMARETHAVRMRVSTSVDNEVAQKVYESIGFREDQEFKNYTLPISDELS | soluble |
| MAHHHHHHMDSEPFAFDGEGSRARQSEYVDMTLVHLGMKLRDMGIAFEDMELATVPTQFAEQLLSYIEAFEERESAIRAATTEHRAQLEQEQKRLESLQEATEKARGEVAILSERISSALSAFRGEEKLEAQHRRERQRDVQDIVRQIEKKELELRRETMERDRLSKMLKKVKK | soluble |
| MPENVTVIGAGLAGSEATWQLAKRGIHVDLYEMRPKKETPAHETGEFAELVCTNSMRSNQLSNAVGLLKEEMRHLDSLIMKAADMTQVPAGGALAVDRDSFSKYVTDTLKGMDNVTVHEEEIVKIPEDGITIIATGPLTSDALAKQIQAFSGTDSLHFFDAAAPIIAADSIDMDIVYKKSRYDRGEAAYLNCPMSKEQYEKFANELIKAETAQLHGFENSDVFEGCMPIEVMAARGAKTMLFGPLKPVGLEDPHTGETPYAVVQLRQDNAAASMYNIVGFQTHLKFGEQKRVFSMIPGLENARFVRYGKMHRNTYMASPNVLTASYEAKNRPGLFFAGQMTGVEGYVESAGSGLVAGINAAREALGKETVAFPKNTALGSMANYVTTTSAKHFQPMNASFALLPALEGKKIRKKRERHEKISERGLASLDAFKTEVLDLEHHHHHH | soluble |
| MTSRSNSGPGIQRRRGAIKHARVHEIRGHQFVATFFRQPHFCSLCSDFMWGLNKQGYQCQLCSAAVHKKCHEKVIMQCPGSAKNTKETMALKERFKVDIPHRFKTYNFKSPTFCDHCGSMLYGLFKQGLRCEVCNVACHHKCERLMSNLCGVNQKQLSEMYHEIKRGTHATASCPPNIANLHLNGETSKNNGSLPNKLKNLFKSHQYSVEEQKETDEYMDNIWGGGDGPVKKFALPHFNLLKVLGKGSFGKVMLVELKGKNEFYAMKCLKKDVILEDDDTECTYIERRVLILASQCPFLCQLFCSFQTNEYLFFVMEYLNGGDLMHHIQQIKKFDEARTRFYACEIVVALQFLHTNNIIYRDLKLDNVLLDCDGHIKLADFGMAKTEMNRENGMASTFCGTPDYISPEIIKGQLYNEAVDFWSFGVLMYEMLVGQSPFHGEGEDELFDSILNERPYFPKTISKEAAKCLSALFDRNPNTRLGMPECPDGPIRQHCFFRGVDWKRFENRQVPPPFKPNIKSNSDASNFDDDFTNEKAALTPVHDKNLLASIDPEAFLNFSYTNPHFSK | not soluble |
| MSLNVGYLCTYTPKELIDAAGFTPIRIFAGDMQISLATAHIQSYACSQARGSLERALRGELDVQAVVFTRCCDTLMRLADIWERNTDMRVYNIEFPTRVEERSKDYYFNELKDFVKVLEEWGGGVTLESLRESLKLYHELEEKLKRLFSLKPDYEAAKRVQEMNVREAIKFVDERLRKAESEGGKPRVLITGSVCPFVEVYTLFEEAGFALKDDICTGTRFFTFNTPPREIGSVDEGLRFLVDKYFEKAPCPTKHFPNDDRFKYILEMAKDCDGVVFLLLKFCEPHFYDYPQLKERLEEMGKKVLLLELEFPIASIEQLRTRIEAFYEVIAEGGSHHHHHH | soluble |
| MGSDKIHHHHHHMRIVAVTDIHGNMASTVALANILKKIEAELLLIAGDITHFSGGEIAKQILEPLLKLGVRVLAVMGNCDGKDVPKVLDELGINVHNARVEVKKVGVVGFGGSSVTPFSTIWEFSEEEIYSSLKRNYRSGDIVLTHAPPYRTRIDKTFSGIHAGSKGLRKFIEEEQPPICICGHIHEARGIDKIGETLVVNPGPLSRRYYAVIDSETWEVKLERL | not soluble |
| MGSDKIHHHHHHMLKIDNLTKTLENKKVISGISFSLKPSQIVGLIGRNGVGKTTLFRLISGEYVPDQGRVTSDESADARSEIFYLDSPDNFTNAFTANQLARIFKVSYPQLDIDWFKNLLKTNNLSLNKKLSGMSKGQRGLILAISAITSKSKYIFLDEPLDGLDLIIRDQVKQMLITAVSNSDTSVMIASHNLEELDFLADRIILLKNGKIEKDYLPGEELKTANVAKLQMVIEGELPKVVSECGHILEKRGHLYVVLFKDYNSKVASRIKRTKAQYIEQLPVNSDDIFRATFEEDYRLRQSAGKRTNK | not soluble |
| MGIHRLWKRFTIDCSGVRRGQTVLDLAGGTGDLTAKFSRLVGETGKVVLADINESMLKMGREKLRNIGVIGNVEYVQANAEALPFPDNTFDCITISFGLRNVTDKDKALRSMYRVLKPGGRLLVLEFSKPIIEPLSKAYDAYSFHVLPRIGSLVANDADSYRYLAESIRMHPDQDTLKAMMQDAGFESVDYYNLTAGVVALHRGYKLEHHHHHH | not soluble |
| MASLEVSRSPRRSRRELEVRSPRQNKYSVLLPTYNERENLPLIVWLLVKSFSESGINYEIIIIDDGSPDGTRDVAEQLEKIYGSDRILLRPREKKLGLGTAYIHGMKHATGNYIIIMDADLSHHPKFIPEFIRKQKEGNFDIVSGTRYKGNGGVYGWDLKRKIISRGANFLTQILLRPGASDLTGSFRLYRKEVLEKLIEKCVSKGYVFQMEMIVRARQLNYTIGEVPISFVDRVYGESKLGGNEIVSFLKGLLTLFATT | not soluble |
| MQKEMEQDVKRFGQAAWATAIPRLEKLKLMLAQETLQLMRAKELCLNHKRAEIQGKMEDLPEQEKNINVVDELAIQFYEIQLELYEVKFEILKNKEILLTTQLDSLERLIKDEI | soluble |
| MKSTMGIILTGGKNDRLKELAEMRSSTAVPIGGKYRVIDFVLSNMVNSGIKNIGVLTQYSFRSLMDHLGSGKEWDLDRRNEGLFIFPPYLAGEHSGWYQGSADAMYHNITFLKRSYEEYVLVAQGNCVYKMLFDDMLDYHIKKNADITIAYRDMSDFPREELSFMGVMTMDENRRVVDFKEKHKNPESTICSMGIYILKRELLIALLEECNSHGKYDFVKDVIINKLPTLNIYGYKFEGYWRNLNSINAYYRINMEMLNPEIRYQLFEQHGKVYTKVKDEPPAKYNEEAEVRNSIIADGCIIEGTVINSVLFRGVTIKRNAVVKDCIIMQDSVIEEDVDIESLIIDKNVYLSKGIRLKGMVNFPITIGKNAVI | not soluble |
| MGSDKIHHHHHHMELCTTICVDLAKQVFQLAGEDATGRVIYEDRIKSRQAFHDFLLRLPTTVAVLMECGPGAQAWARLLQAKGNPVRILPAQRVAEHRSGAKNDRNDCYAILRAGRDTSIASIPIKSTTALAIQALHRIRRGNIKRHTALGNQIRGLLLEHGVSMPQGDAAINKHVPRALEDASLPLPDLLRELLDELLMDWLSLGERITALSRRLEATAQEDKVAQRLITIRGVGPIIATAIVAKQTDPSRFASGRMYSAFFGIVPDQHSSGNKIRLGKMSKRGDGYIRSLMIQGAHSVLSQLRPDSDQPDDRRLLRWLSRLGRKEAAIRLANRNLRIIWALLQSDQVYQRKPNEKPEAAMSL | not soluble |
| MSLKSTDIKIVEAKFSTEEVPFRTPLKFGGRVMDSSVLLNVEVIVETRNGKQGIGIGSMPAGNIWAWPSAVVSPEDSLKAMIEFLKEAVEIANICPEVAHPIDLMYHISAEYHFMAKKLSKRLGLAEEIPELAQLVASSPLDAAIHDGFGRANHINSYNGLSAEYMSHDLTEYLDDQFKGEYLDQYTLRDPKPTLPLYHLVGALDPITEADISERVDDGLPETLGEWIKADGLTHLKIKLSGDNMDWDISRVIAVENEAVKAQGERGQDKWVYSLDFNEKCENVDYVLDFLNKIREQTPAAFDRVQYIEQPTNRDLKANPENKMHEAAKIKPVVIDESLVDYESLLLSRELGYSGVALKACKGQTESLFLGAAAQKFDMFLCVQDLTCCGYSFLHSASLAARIPSIAAIEGNGRQYCPGPNKKWKRSYPGMFNITDGTVKTSELNGDGLGFEGHHHHHH | soluble |
| GRDGNNLNNPVLLLDTFDFGPREDNWFFYPGGNIGLYCPYSSKGAPEEDSAMVFVSNEVGEHSITTRDLSVNENTIIQFEINVGCSTDSSSADPVRLEFSRDFGATWHLLLPLCYHSSSLVSSLCSTEHHPSSTYYAGTTQGWRREVVHFGKLHLAGSVRFRWYQGFYPAGSQPVTWAIDNVYIGPQCEEMCYGHGSCINGTKCICDPGYSGPTCKISTKNPDFLKDDFEGQLESDRFLLMSGGKPSRKCGILSSGNNLFFNEDGLRMLVTRDLDLSHARFVQFFMRLGCGKGVPDPRSQPVLLQYSLNGGLSWSLLQEFLFSNSSNVGRYIALEMPLKARSGSTRLRWWQPSENGHFYSPWVIDQILIGGNISGNTVLEDDFSTLDSRKWLLHPGGTKMPVCGSTGDALVFIEKASTRYVVTTDIAVNEDSFLQIDFAASCSVTDSCYAIELEYSVDLGLSWHPLVRDCLPTNVECSRYHLQRILVSDTFNKWTRITLPLPSYTRSQATRFRWHQPAPFDKQQTWAIDNVYIGDGCLDMCSGHGRCVQGSCVCDEQWGGLYCDEPETSLPTQLKDNFNRAPSNQNWLTVSGGKLSTVCGAVASGLALHFSGGCSRLLVTVDLNLTNAEFIQFYFMYGCLITPSNRNQGVLLEYSVNGGITWNLLMEIFYDQYSKPGFVNILLPPDAKEIATRFRWWQPRHDGLDQNDWAIDNVLISRLENLYFQ | soluble |
| MYSISFQEDSLLPRERLAKEGVEALSNQELLAILLRTGTRQASVFEIAQKVLNNLSSLTDLKKMTLQELQSLSGIGRVKAIELQAMIELGHRIHKHETLEMESILSSQKLAKKMQQELGDKKQEHLVALYLNTQNQIIHQQTIFIGSVTRSIAEPREILHYAIKHMATSLILVHNHPSGAVAPSQNDDHVTKLVKEACELMGIVLLDHLIVSHSNYFSYREKTDLI | not soluble |
| MGSDKIHHHHHHMWSLMHPYLPATVRKWTNLNLSNHSFSLNTMKTKRLSEFFPGVRSYYIVGEIAIITPKRVNVDYNLVAEKIMQAHPKIKAVYLKKKVKGELRTNELEFLSGERISSTIYKENGVLFYVDINKVYVNPSLSGDRLKNLELVEEGSTVLDAFTGYGAIALNIAHKKRVYVVAGDINIDGLYMLKKSLSLNKIKGMIDIVQYDAHHLPFRDKVFKLSFGDNPTLIIDFKEELCRVSENVVFYILCESEDKANSSLGRTSWIKINDYSKNLFIFKGLVRC | not soluble |
| MGSDKIHHHHHHMDDRIVVTTQQVRALIASQFPQWAALDVQPVDLSGWDNRSFRLGEDMLVRMPSAERYVAQVEKEHRWLPELGPLLPVPIPAPLALGQPGEQYPFCWSVYRWLKGEPLARYLDSIELSAIAIDVAAFLKALHGIDASAGPPAGAHNFHRGGSLAVYDGEARASAARLANEVDQALAMEIWQLALSSHWQGKGVWVHGDIAEGNLLVQDGRLSAVIDFGSSGVGDPSSDLILAWNVLDAHSRAVFRQALGLDEATWQRGRGWALWKALIVLDAERGRNEKMAEWSRRTLREIFADHLEN | not soluble |
| MSLAKGIMLHEVGEQVDQYLLIKSSTKGIASNGKPFLTLMLQDQSGDIEAKLWDAKQSDEVTYAPQTIVKVVGDVHHYRGRTQLKLRNIRPVSEQENVNIDDFLETAPIPKNEMMDTITQYIFEMKNPNIQRITRFLVKKHEAEFMDYPAATKNHHEFVSGLAYHVVSMLNLAKAIADLYPSLDRDLLYAGVILHDLGKVKELSGPVSTSYTVEGNLLGHISIMVTELSKAAEELQIDSEEVLILQHLILSHHGKAEWGSPKPPMVKEAEILHYIDNLDAKMNMMDRALERVKPGEYTERVFALENRSFYKPTFHKEGGSHHHHHH | soluble |
